Measured values published in patent US20100260668A1 (published 2010).

Biological target: T1, VEGF (UniProt P15692-4 27-191)
T1 construct: Bought reagent; also called vascular endothelial growth factor
Assay: BIACORE SPR

T1 sequence (P15692 other isoform, or with tags, fused parts or gaps limits assumed): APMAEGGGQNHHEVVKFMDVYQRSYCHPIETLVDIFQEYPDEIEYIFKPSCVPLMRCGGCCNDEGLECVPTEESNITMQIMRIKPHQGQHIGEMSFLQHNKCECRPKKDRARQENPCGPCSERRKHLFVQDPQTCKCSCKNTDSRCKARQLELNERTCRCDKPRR

Row | Binder | Kd [nM] | koff [s⁻¹] | kon [M⁻¹ s⁻¹]
1 | DVD448 (bispecific antibody, human IgG1, kappa, DVD-Ig; N-term; AB014 (VEGF), C-term; AB069 (DLL4); HC linker long, LC linker long; also called DVD448H; DVD448L) heavy: not shown light: DIQMTQSPSSLSASVGDRVTITCSASQDISNYLNWYQQKPGKAPKVLIYFTSSLHSGVPSRFSGSGSGTDFTLTISSLQPEDFATYYCQQYSTVPWTFGQGTKVEIKRTVAAPSVFIFPPDIVMTQSPDSLAVSLGERATISCRASESVDNYGISFMKWFQQKPGQPPKLLIYAASNQGSGVPDRFSGSGSGTDFTLTISSLQAEDVAVYYCQQSKEVPWTFGGGTKVEIKRTVAAPSVFIFPPSDEQLKSGTASVVCLLNNFYPREAKVQWKVDNALQSGNSQESVTEQDSKDSTYSLSSTLTLSKADYEKHKVYACEVTHQGLSSPVTKSFNRGEC | 0.271 | 0.000136 | 504000
2 | DVD460 (bispecific antibody, human IgG1, kappa, DVD-Ig; N-term; AB014 (VEGF), C-term; AB069 (DLL4); HC linker short, LC linker long; also called DVD460H; DVD460L) heavy: not shown light: DIQMTQSPSSLSASVGDRVTITCSASQDISNYLNWYQQKPGKAPKVLIYFTSSLHSGVPSRFSGSGSGTDFTLTISSLQPEDFATYYCQQYSTVPWTFGQGTKVEIKRTVAAPSVFIFPPDIVMTQSPDSLAVSLGERATISCRASESVDNYGISFMKWFQQKPGQPPKLLIYAASNQGSGVPDRFSGSGSGTDFTLTISSLQAEDVAVYYCQQSKEVPWTFGGGTKVEIKRTVAAPSVFIFPPSDEQLKSGTASVVCLLNNFYPREAKVQWKVDNALQSGNSQESVTEQDSKDSTYSLSSTLTLSKADYEKHKVYACEVTHQGLSSPVTKSFNRGEC | 0.174 | 0.000228 | 1.32e+06
3 | DVD482 (bispecific antibody, human IgG1, kappa, DVD-Ig; N-term; AB014 (VEGF), C-term; AB015 (DLL4); HC linker short, LC linker long; also called DVD482H; DVD482L) heavy: not shown light: DIQMTQSPSSLSASVGDRVTITCSASQDISNYLNWYQQKPGKAPKVLIYFTSSLHSGVPSRFSGSGSGTDFTLTISSLQPEDFATYYCQQYSTVPWTFGQGTKVEIKRTVAAPSVFIFPPDIQMTQSPSSLSASVGDRVTITCRASQDVSTAVAWYQQKPGKAPKLLIYSASFLYSGVPSRFSGSGSGTDFTLTISSLQPEDFATTYYCQQSYTGTVTFGQGTKVEIKRTVAAPSVFIFPPSDEQLKSGTASVVCLLNNFYPREAKVQWKVDNALQSGNSQESVTEQDSKDSTYSLSSTLTLSKADYEKHKVYACEVTHQGLSSPVTKSFNRGEC | 0.2 | 0.000138 | 687000

The next binders have a lower Kd than those just listed; values first:

Row | Kd [nM] | koff [s⁻¹] | kon [M⁻¹ s⁻¹] | Binder
4 | 0.153 | 0.000143 | 939000 | DVD512 (bispecific antibody, human IgG1, lambda, L234A L235A, DVD-Ig; N-term; AB014 (VEGF), C-term; AB073 (DLL4); HC linker short, LC linker short; also called DVD512H; DVD512L) heavy: not shown light: DIQMTQSPSSLSASVGDRVTITCSASQDISNYLNWYQQKPGKAPKVLIYFTSSLHSGVPSRFSGSGSGTDFTLTISSLQPEDFATYYCQQYSTVPWTFGQGTKVEIKRTVAAPQAVVTQESALTTSPGETVTLTCRSSTGAVTTSNYANWVQEKPDHLFTGLIGGTNNRAPGVPARFSGSLIGDKAALTITGAQTEDEAIYFCALWYSNHWVFGGGTKLTVLGQPKAAPSVTLFPPSSEELQANKATLVCLISDFYPGAVTVAWKADSSPVKAGVETTTPSKQSNNKYAASSYLSLTPEQWKSHRSYSCQVTHEGSTVEKTVAPTECS
5 | 0.088 | 0.00017 | 1.93e+06 | DVD442 (bispecific antibody, human IgG1, kappa, DVD-Ig; N-term; AB014 (VEGF), C-term; AB069 (DLL4); HC linker short, LC linker short; also called DVD442H; DVD442L) heavy: not shown light: DIQMTQSPSSLSASVGDRVTITCSASQDISNYLNWYQQKPGKAPKVLIYFTSSLHSGVPSRFSGSGSGTDFTLTISSLQPEDFATYYCQQYSTVPWTFGQGTKVEIKRTVAAPDIVMTQSPDSLAVSLGERATISCRASESVDNYGISFMKWFQQKPGQPPKLLIYAASNQGSGVPDRFSGSGSGTDFTLTISSLQAEDVAVYYCQQSKEVPWTFGGGTKVEIKRTVAAPSVFIFPPSDEQLKSGTASVVCLLNNFYPREAKVQWKVDNALQSGNSQESVTEQDSKDSTYSLSSTLTLSKADYEKHKVYACEVTHQGLSSPVTKSFNRGEC
6 | 0.079 | 0.000126 | 1.59e+06 | DVD454 (bispecific antibody, human IgG1, kappa, DVD-Ig; N-term; AB014 (VEGF), C-term; AB069 (DLL4); HC linker long, LC linker short; also called DVD454H; DVD454L) heavy: not shown light: DIQMTQSPSSLSASVGDRVTITCSASQDISNYLNWYQQKPGKAPKVLIYFTSSLHSGVPSRFSGSGSGTDFTLTISSLQPEDFATYYCQQYSTVPWTFGQGTKVEIKRTVAAPDIVMTQSPDSLAVSLGERATISCRASESVDNYGISFMKWFQQKPGQPPKLLIYAASNQGSGVPDRFSGSGSGTDFTLTISSLQAEDVAVYYCQQSKEVPWTFGGGTKVEIKRTVAAPSVFIFPPSDEQLKSGTASVVCLLNNFYPREAKVQWKVDNALQSGNSQESVTEQDSKDSTYSLSSTLTLSKADYEKHKVYACEVTHQGLSSPVTKSFNRGEC
